Source: paper PMC10696418
Where two headings read alike, the source gives them in different places.

Assays:
Assay in all cases: SPR
[1] = molecular target: wild-type CRIg Ig V domain, His-tagged (human) (UniProt Q9Y279)
[2] = molecular target: CRIg-Mut-2 (CRIg Ig V domain mutant K15R/K36R/K62Q/K72R/K110R), His-tagged (human)
[3] = molecular target: CRIg-Mut-1 (CRIg Ig V domain mutant K15R/K36R/K62R/K72R/K110R), His-tagged (human)
[4] = molecular target: wild-type CRIg Ig V domain, His-tagged (human) (UniProt Q9Y279); remark: listed apart in the source

Substance | Ka-1 (two-state model, first step, association rate) [1] [M⁻¹ s⁻¹] | Ka-2 (two-state model, second step, forward rate) [1] [s⁻¹] | Kd [1] [nM] | Kd-1 (two-state model, first step, dissociation rate) [1] [s⁻¹] | Kd-2 (two-state model, second step, reverse rate) [1] [s⁻¹] | Ka-1 (two-state model, first step, association rate) [2] [M⁻¹ s⁻¹] | Ka-2 (two-state model, second step, forward rate) [2] [s⁻¹] | Kd [2] [nM] | Kd-1 (two-state model, first step, dissociation rate) [2] [s⁻¹] | Kd-2 (two-state model, second step, reverse rate) [2] [s⁻¹] | Ka-1 (two-state model, first step, association rate) [3] [M⁻¹ s⁻¹] | Ka-2 (two-state model, second step, forward rate) [3] [s⁻¹] | Kd [3] [nM] | Kd-1 (two-state model, first step, dissociation rate) [3] [s⁻¹] | Kd-2 (two-state model, second step, reverse rate) [3] [s⁻¹] | Kd [4] [nM] | also measured
iC3b (from UniProt P01024 23-667; P01024 1321-1663) (domain or fragment) | 35800 | 0.00463 | 10.5 | 0.0168 | 0.000105 | 10600 | 0.00469 | 84.6 | 0.0191 | 0.000227 | 7100 | 0.00589 | 115 | 0.0209 | 0.000231 | 68 | Ka-1 (two-state model, first step, association rate) [4]: 16000 M⁻¹ s⁻¹; Ka-2 (two-state model, second step, forward rate) [4]: 0.00376 s⁻¹; Kd-1 (two-state model, first step, dissociation rate) [4]: 0.0207 s⁻¹; Kd-2 (two-state model, second step, reverse rate) [4]: 0.000206 s⁻¹
C3b (from UniProt P01024 749-1663; P01024 749-1663) (domain or fragment) | 25100 | 0.00166 | 47.2 | 0.00714 | 0.00533 |  |  | 16.2 |  |  |  |  | 25.2 |  |  | 7.29 | koff [2]: 0.000203 s⁻¹; kon [2]: 12600 M⁻¹ s⁻¹; koff [3]: 0.000441 s⁻¹; kon [3]: 18200 M⁻¹ s⁻¹; koff [4]: 0.000125 s⁻¹; kon [4]: 17100 M⁻¹ s⁻¹
C3c (from UniProt P01024 23-667; P01024 749-954; P01024 1321-1663) (domain or fragment) |  |  |  |  |  | 14800 | 0.00262 | 1130 | 0.0271 | 0.00414 | 12000 | 0.0052 | 2780 | 0.0491 | 0.00928 |  | 
